The pEC50 is the EC50 on a negative log10 scale, so that one unit is a factor of ten. Low readings indicate a high EC50, high ones a low EC50. What is called pIC50 is −log10 of the IC50, conventionally taken in molar units.

This passage reports EC50 and IC50 results from US20230242658A1.

In assay [1] the target is human 4-1BB on CHO-K1 cells (human) (UniProt Q07011). The assay can be described thus: FACS; FIG. 25D.
Assay [2] has the same target. The assay can be described thus: FACS; FIG. 25E. Background: In flow cytometry, cells or beads pass a laser one at a time.
Assay [3] shares this target. The assay can be described thus: FACS; FIG. 25A.
Assay [4] has the same target. The assay can be described thus: FACS; FIG. 25B.
For assay [5] the target is unchanged. The assay can be described thus: FACS; FIG. 25C.
For assay [6] the target is unchanged. The assay can be described thus: FACS; FIG. 11H.
For assay [7] the target is unchanged. The assay can be described thus: FACS; FIG. 11I.
For assay [8] the target is unchanged. The assay can be described thus: FACS; FIG. 11J.
Assay [9] has the same target. The assay can be described thus: FACS blocking of 4-1BBL; FIG. 14F.
The target is the same in assay [10]. The assay can be described thus: FACS blocking of 4-1BBL; FIG. 14G.
For assay [11] the target is unchanged. The assay can be described thus: FACS blocking of 4-1BBL; FIG. 14H.

pEC50, pIC50: −log10 of the molar value.

Sequence of human 4-1BB on CHO-K1 cells (human) (Q07011 24-255): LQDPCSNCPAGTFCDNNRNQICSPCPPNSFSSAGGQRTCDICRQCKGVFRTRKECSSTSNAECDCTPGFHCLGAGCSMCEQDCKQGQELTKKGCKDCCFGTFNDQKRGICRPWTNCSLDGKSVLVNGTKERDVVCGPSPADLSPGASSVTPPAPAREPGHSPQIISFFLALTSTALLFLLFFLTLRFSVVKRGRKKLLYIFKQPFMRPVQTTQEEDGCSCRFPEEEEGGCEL

As to Urelumab, the pEC50 is 9.18 in assay [1]; 9.63 in assay [2]; 8.99 in [3]; 9.46 in assay [4]; 9.28 in assay [5]; 9.17 in [6]. In addition, the pEC50 in assay [7] is 9.15; in [8] it was 9.31. For the same substance, the pIC50 is 8.89 in [9], 9.35 in assay [10] and 9.63 in [11].
